Source: publication PMC4380928

How the values were obtained:
Experiment in all cases: peptide microarray probed with GST protein
Details in all cases: reference: unphosphorylated Y124 15-mer; sites Y124
[1] = target: GRB2 SH2, 75-160 (UniProt P62993)
[2] = target: PIK3R3 (p55γ) 1-461 (UniProt Q92569)
[3] = target: GRB2 1-217 (UniProt P62993)

Measured: binding against the reference

TSPAN2 (tetraspanin 2) 15-mers, each centred on one tyrosine (from UniProt O60636) pY124 15-mer
gained: all assays above
